Measurements published in paper PMC10580950.

Experiments:
[1] = tested on: OxyR C212D (mimic of overoxidized OxyR) (Streptomyces gilvosporeus F607); experiment: MST; settings: overoxidized OxyR (C212D mimic per Results); EMSA: 20 mM Tris pH 7.5, 60 mM KCl, 2 mM EDTA, 0.5 mM DTT, 4% Ficoll, 1 ug poly(dI-dC), 20 uL, 15-25 C, 30 min; MST: 50 mM HEPES pH 7.4, 0.05% Tween 20, room …
[2] = tested on: OxyR (Streptomyces gilvosporeus F607); experiment: MST; settings: EMSA: 20 mM Tris pH 7.5, 60 mM KCl, 2 mM EDTA, 0.5 mM DTT, 4% Ficoll, 1 ug poly(dI-dC), 20 uL, 15-25 C, 30 min, MST: 50 mM HEPES pH 7.4, 0.05% Tween 20, room …

psgnM (redox EMSA and MST)
Kd [1]: 324 nM | Kd ([2]; oxidized OxyR (H2O2)): 45.9 nM | Kd ([2]; reduced OxyR (DTT)): 135 nM
